Measured values published in patent publication US20240398942A1, “USE OF ANTI-CD40 ANTIBODY” (CHIA TAI TIANQING PHARMACEUTICAL GROUP CO., LTD., priority 2021, published 2024).
Like-named read-outs stand apart in the source and are kept apart here. One block for each molecule: values may come before it.

Assays:
[1] = molecular target: Cynomolgus monkey CD40-his; experiment: Biacore surface plasmon resonance affinity and binding kinetics; details: Table 5, Biacore; for Ka: purified antibodies
Text: (§1) The affinity and binding kinetics of the anti-CD40 antibody in the present application were characterized by a Biacore T200 system (GE Healthcare, Pittsburgh, PA, USA).
(§2) Briefly, a goat anti-human IgG (GE Healthcare, Cat. No. BR100839, human antibody capture kit) was covalently linked to a CM5 chip (GE Healthcare, Cat. No. BR100530, carboxymethylated dextran-coated chip) via the primary amine group using a standard amine coupling kit supplied by Biacore (GE Healthcare, Pittsburgh, PA, USA). Unreacted portions on the biosensor surface were blocked with ethanolamine. Then, the anti-CD40 antibody of the present application and two benchmark antibodies (BM1 (dacetuzumab, Genentech Inc., also referred to CD40-BM1, prepared in-house; the heavy and light chain amino acid sequences are set forth in SEQ ID NOs: 40 and 41, respectively) and BM2 (selicrelumab, Abgenix Inc., also referred to CD40-BM2, prepared in-house; the heavy and light chain amino acid sequences are set forth in SEQ ID NOS: 42 and 43, respectively)) at a concentration of 66.67 nM were directed through the chip at a flow rate of 10 μL/min. Then, serially diluted recombinant human CD40-his (Acro biosystems, Cat. No. CD0-H5228, serially 2-fold diluted from 80 nM in HBS-EP^+ buffer (supplied by Biacore)) or cynomolgus monkey CD40-his protein (Acro biosystems, Cat. No. CD0-C52H6, serially 2-fold diluted from 80 nM in HBS-EP^+ buffer (supplied by Biacore)) was directed through the chip at a flow rate of 30 μL/min. The antigen-antibody binding kinetics was tracked for 2 min and the dissociation kinetics was tracked for 10 min. The association and dissociation curves were fitted to a 1:1 Langmuir binding model using BIAcore evaluation software. KD, Ka, and Kd values were determined.

[2] = molecular target: T1, Human CD40-his (Homo sapiens, UniProt P25942); experiment: as above; details: Table 5, Biacore; for Ka: purified antibodies
T1 construct: His; purchased Acro biosystems CD0-H5228
Text: as §1, §2

[3] = molecular target: binding of CD40 to CD40L (Homo sapiens, UniProt P25942); experiment: Ligand blocking competitive ELISA; details: in words, FIG. 5
Experimental: The ability of the anti-CD40 antibody to block the binding of CD40 to CD40L was determined by competitive ELISA. Briefly, a human CD40-Fc protein (amino acid residues 21-193 of SEQ ID NO: 30 linked to the N terminus of amino acid residues 99-330 of SEQ ID NO: 28) dissolved in the immobilization buffer (carbonate/bicarbonate buffer) at a concentration of 2 μg/mL was immobilized on a 96-well plate at 100 μL/well and incubated overnight at 4° C. The next day, the plate was washed once with a washing buffer (PBS+0.05% v/v of Tween-20, PBST) before a PBST containing 5% w/v of skim milk was added. The plate was then incubated at 37° C. for 2 h for blocking. The plate was then washed 4 times with the washing buffer.
The anti-CD40 antibody of the present application or the benchmark was serially 5-fold diluted from 200 nM in a PBST containing 2.5% w/v of skim milk, and the serially diluted anti-CD40 antibody or benchmark was added at 100 μL/well to a plate coated with CD40-Fc protein and incubated at 37° C. for 40 min. […] The absorbance of each well was read on a microplate reader using the dual wavelength mode (TMB detection wavelength: 450 nm, reference wavelength: 630 nm). […] Data were analyzed using Graphpad Prism software, and IC50 values were obtained.

[4] = tested on: CD40 signal transduction in 293T-NF-κB-Luc-CD40 cells; experiment: Cell-based reporter assay; design: species or system human; details: in words, FIGS. 2A-2C and 7
Text: The agonistic activity of the anti-CD40 antibody of the present application was further determined in a CD40 expression reporter cell line 293T-NF-κB-Luc-CD40, which stably expresses full-length human CD40 (uniprot No. P25942-1, SEQ ID NO: 30). According to the instructions of lipofectamine 3000 transfection reagent (Thermo Fisher), a pGL4.32 [luc2P NF-κB-RE Hygro] vector (Promega, GenBank® Accession No. EU581860) and a pCMV-T-P plasmid (with a CD40 coding sequence inserted between the EcoRI and Khal loci) were transfected into 293T cells in sequence to prepare 293T-NF-κB-Luc-CD40 cells.
Briefly, 293T-NF-κB-Luc-CD40 cells at the log phase were resuspended in DMEM medium (Gibco Inc., Cat. No. 10566-016) containing 10% of FBS (Gibco Inc., Cat. No. 10099-141), and seeded on a 384-well plate (Corning, Cat. No. 3707) at 20 μL/well (containing 5×10^3 cells). Then, the anti-CD40 antibody of the present application or the controls (including an in-house prepared anti-CD22 antibody as a negative control) serially 3-fold diluted from 200 nM in the medium was added at 20 μL per well and incubated at 37° C. for 6 h. […] The chemiluminescence values were measured using Tecan Infinit® 200 Pro. Data were analyzed using Graphpad Prism software, and EC50 values were obtained.

T1 sequence (P25942 21-277): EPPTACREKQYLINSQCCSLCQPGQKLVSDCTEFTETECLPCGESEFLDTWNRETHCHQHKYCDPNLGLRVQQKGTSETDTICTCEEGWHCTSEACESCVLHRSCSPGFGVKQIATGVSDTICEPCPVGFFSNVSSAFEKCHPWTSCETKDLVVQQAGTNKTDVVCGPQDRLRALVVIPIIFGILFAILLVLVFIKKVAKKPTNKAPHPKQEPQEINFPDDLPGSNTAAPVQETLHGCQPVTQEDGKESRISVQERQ
Sequence of binding of CD40 to CD40L (P25942 21-193): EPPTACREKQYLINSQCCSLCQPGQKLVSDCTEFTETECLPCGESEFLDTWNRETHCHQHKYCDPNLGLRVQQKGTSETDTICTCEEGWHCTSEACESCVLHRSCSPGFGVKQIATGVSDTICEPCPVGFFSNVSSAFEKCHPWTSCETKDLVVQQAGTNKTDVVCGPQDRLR

Kd ([1]; dissociation rate): 0.002371 s⁻¹
Ka [1]: 2.14e+06 M⁻¹ s⁻¹
Kd ([1]; read-out: KD): 1.11 nM
Kd ([2]; dissociation rate): 0.00248 s⁻¹
Ka [2]: 2.25e+06 M⁻¹ s⁻¹
Kd ([2]; read-out: KD): 1.1 nM
B1: huC1H1-V1: humanized C1H1 anti-CD40 antibody, VH SEQ ID NO: 20 X1=A, VL SEQ ID NO: 24 X1=K X2=F, human IgG2/κ (antibody, V domains shown)
VH: EVQLVESGGGLVKPGGSLRLSCAASGFTFSNYGISWVRQAPGKGLEWVXSISSGGDNTYYPDNVKGRFTISRDNAKNSLYLQMNSLRAEDTAVYYCARAGEKAMDYWGQGTLVTVSS
VL: EIVLTQSPATLSLSPGERATLSCRASQTINNNLHWYQQKPGQAPRLLIXYASQSISGIPARFSGSGSGTDFTLTISSLEPEDFAVYXCQQFSSWPLTFGGGTKVEIK
modifications: not fully specified; human IgG2/kappa constant regions; VH of huC1H1-V1 to huC1H1-V4; VARIANT 49 X can be A or S; VL of huC1H1-V1 to huC1H1-V4; VARIANT 49 X can be K or Y; VARIANT 87 X can be F or Y
Blocking of the binding of CD40 to CD40L [3]: comparable or slightly lower blocking activity relative to BM1 and BM2
Agonistic activity (activation of CD40 signal transduction) [4]: higher than those of BM1 and BM2

B2: huC1H1-V2: humanized C1H1 anti-CD40 antibody, VH SEQ ID NO: 20 X1=S, VL SEQ ID NO: 24 X1=K X2=F, human IgG2/κ (antibody, V domains shown)
VH: B1 VH
VL: B1 VL
modifications: not fully specified; variable positions X1=S; VL X1=K X2=F; IgG2/kappa constant; VH of huC1H1-V1 to huC1H1-V4; VARIANT 49 X can be A or S; VL of huC1H1-V1 to huC1H1-V4; VARIANT 49 X can be K or Y; VARIANT 87 X can be F or Y
Kd ([1]; dissociation rate): 0.002735 s⁻¹
Ka [1]: 2.56e+06 M⁻¹ s⁻¹
Kd ([1]; read-out: KD): 1.07 nM
Kd ([2]; dissociation rate): 0.002704 s⁻¹
Ka [2]: 2.31e+06 M⁻¹ s⁻¹
Kd ([2]; read-out: KD): 1.17 nM
Blocking of the binding of CD40 to CD40L [3]: comparable or slightly lower blocking activity relative to BM1 and BM2
Agonistic activity (activation of CD40 signal transduction) [4]: higher than those of BM1 and BM2
